Data on one molecule can be found in patent US20240301038A1 (ATRECA, published 2024).

The target in the assay is T1, SARS-CoV-2 native Spike (S) trimer (Acro Biosystems) (SARS-CoV-2, UniProt P0DTC2 16-1213).
T1 construct: also called Spike trimer
Kind of assay: ELISA on spike trimer.

B1: AB-009681 (antibody, V domains shown)
VH: QVQLVQSGAEVKKPGSSVKVSCKASGGTFSSYAISWVRQAPGQGLEWMGGIIPIFGTANYAQKFQGRVTITADESTSTAYMELSSLRSEDTAVYYCASVGGDYDLDYWGQGTLVTVSS
VL: EIVLTQSPATLSLSPGERATLSCRASQSVSSYLAWYQQKPGQAPRLLIYDASNRATGIPARFSGSGSGTDFTLTISSLEPEDFAVYYCQQRSNWPPYTFGQGTKLEIK
For the molecule B1, the binding result is given as “no binding”.
